Patent US20210388087A1 (Chugai, published 2021)
Numbering of substitutions follows the chain as printed. In names and notes the source's numbering stands.

B1: CE115HA000 K52I one-arm antibody (antibody, human IgG1, kappa, L234A L235A, N297A, name in Kabat numbering)
heavy: QVQLVESGGGVVQPGRSLRLSCAASGFTFSNAWMHWVRQAPGKGLEWVAQIIAKSNNYATYYAESVKGRFTISRDDSKNSLYLQMNSLKTEDTAVYYCRYVHYGAYYGVDAWGQGTTVTVSSASTKGPSVFPLAPSSKSTSGGTAALGCLVKDYFPEPVTVSWNSGALTSGVHTFPAVLQSSGLYSLSSVVTVPSSSLGTQTYICNVNHKPSNTKVDKKVEPKSCDKTHTCPPCPAPEAAGGPSVFLFPPKPKDTLMISRTPEVTCVVVDVSHEDPEVKFNWYVDGVEVHNAKTKPREEQYASTYRVVSVLTVLHQDWLNGKEYKCKVSNKALPAPIEKTISKAKGQPREPQVYTLPPSRCELTKNQVSLSCAVKGFYPSDIAVEWESNGQPENNYKTTPPVLDSDGSFFLVSKLTVDKSRWQQGNVFSCSVMHEALHNHYTQKSLSLSPDYKDDDDK
chain: EPKSSDKTHTCPPCPAPELLGGPSVFLFPPKPKDTLMISRTPEVTCVVVDVSHEDPEVKFNWYVDGVEVHNAKTKPREEQYNSTYRVVSVLTVLHQDWLNGKEYKCKVSNKALPAPIEKTISKAKGQPREPQVCTLPPSRDELTKNQVSLWCLVKGFYPSDIAVEWESNGQPENNYKTTPPVLDSDGSFFLYSKLTVDKSRWQQGNVFSCSVMHEALHNRYTQKSLSLSP
light: DIVMTQSPLSLPVTPGEPASISCRSSQSLVHSNRNTYLHWYQQKPGQAPRLLIYKVSNRFSGVPDRFSGSGSGTDFTLKISRVEAEDVGVYYCGQGTQVPYTFGQGTKLEIKRTVAAPSVFIFPPSDEQLKSGTASVVCLLNNFYPREAKVQWKVDNALQSGNSQESVTEQDSKDSTYSLSSTLTLSKADYEKHKVYACEVTHQGLSSPVTKSFNRGEC
B2: CE115HA000 K52bL one-arm antibody (antibody, human IgG1, kappa, L234A L235A, N297A, name in Kabat numbering)
heavy: B1 heavy with I52K, K54L
chain: B1 chain
light: B1 light
B3: CE115HA000 K75R one-arm antibody (antibody, human IgG1, kappa, L234A L235A, N297A, name in Kabat numbering)
heavy: B1 heavy with I52K, K78R
chain: B1 chain
light: B1 light
B4: CE115HA000 K64Q one-arm antibody (antibody, human IgG1, kappa, L234A L235A, N297A, name in Kabat numbering)
heavy: B1 heavy with I52K, K67Q
chain: B1 chain
light: B1 light
B5: CE115HA000 K64E one-arm antibody (antibody, human IgG1, kappa, L234A L235A, N297A, name in Kabat numbering)
heavy: B1 heavy with I52K, K67E
chain: B1 chain
light: B1 light
B6: CE115HA000 K75T one-arm antibody (antibody, human IgG1, kappa, L234A L235A, N297A, name in Kabat numbering)
heavy: B1 heavy with I52K, K78T
chain: B1 chain
light: B1 light
B7: CE115HA000 K52N one-arm antibody (antibody, human IgG1, kappa, L234A L235A, N297A, name in Kabat numbering)
heavy: B1 heavy with I52N
chain: B1 chain
light: B1 light
B8: CE115HA000 K52W one-arm antibody (antibody, human IgG1, kappa, L234A L235A, N297A, name in Kabat numbering)
heavy: B1 heavy with I52W
chain: B1 chain
light: B1 light
B9: CE115HA000 K52bQ one-arm antibody (antibody, human IgG1, kappa, L234A L235A, N297A, name in Kabat numbering)
heavy: B1 heavy with I52K, K54Q
chain: B1 chain
light: B1 light
B10: CE115HA000 K52bD one-arm antibody (antibody, human IgG1, kappa, L234A L235A, N297A, name in Kabat numbering)
heavy: B1 heavy with I52K, K54D
chain: B1 chain
light: B1 light
B11: CE115HA000 K52bY one-arm antibody (antibody, human IgG1, kappa, L234A L235A, N297A, name in Kabat numbering)
heavy: B1 heavy with I52K, K54Y
chain: B1 chain
light: B1 light
B12: CE115HA000 K64D one-arm antibody (antibody, human IgG1, kappa, L234A L235A, N297A, name in Kabat numbering)
heavy: B1 heavy with I52K, K67D
chain: B1 chain
light: B1 light
B13: CE115HA000 K52bN one-arm antibody (antibody, human IgG1, kappa, L234A L235A, N297A, name in Kabat numbering)
heavy: B1 heavy with I52K, K54N
chain: B1 chain
light: B1 light
B14: CE115HA000 K52R one-arm antibody (antibody, human IgG1, kappa, L234A L235A, N297A, name in Kabat numbering)
heavy: B1 heavy with I52R
chain: B1 chain
light: B1 light
B15: CE115HA000 K52bS one-arm antibody (antibody, human IgG1, kappa, L234A L235A, N297A, name in Kabat numbering)
heavy: B1 heavy with I52K, K54S
chain: B1 chain
light: B1 light
B16: CE115HA000 K52bA one-arm antibody (antibody, human IgG1, kappa, L234A L235A, N297A, name in Kabat numbering)
heavy: B1 heavy with I52K, K54A
chain: B1 chain
light: B1 light
B17: CE115HA000 K52S one-arm antibody (antibody, human IgG1, kappa, L234A L235A, N297A, name in Kabat numbering)
heavy: B1 heavy with I52S
chain: B1 chain
light: B1 light
B18: CE115HA000 K52Y one-arm antibody (antibody, human IgG1, kappa, L234A L235A, N297A, name in Kabat numbering)
heavy: B1 heavy with I52Y
chain: B1 chain
light: B1 light
B19: CE115HA000 K52bR one-arm antibody (antibody, human IgG1, kappa, L234A L235A, N297A, name in Kabat numbering)
heavy: B1 heavy with I52K, K54R
chain: B1 chain
light: B1 light
B20: CE115HA000 K64S one-arm antibody (antibody, human IgG1, kappa, L234A L235A, N297A, name in Kabat numbering)
heavy: B1 heavy with I52K, K67S
chain: B1 chain
light: B1 light
B21: CE115HA000 K64A one-arm antibody (antibody, human IgG1, kappa, L234A L235A, N297A, name in Kabat numbering)
heavy: B1 heavy with I52K, K67A
chain: B1 chain
light: B1 light

biological target: T1, CD3 epsilon homodimer protein (UniProt P07766 23-126); experiment: SPR (Biacore T200), CD3 epsilon homodimer on CM4 chip, one-arm antibody as analyte, 25 C;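 also: homodimer attached to the sensor surface via amine coupling, HBS-EP+ used as running buffer during binding runs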
T1 construct: immobilized on Sensor chip CM4 by amine coupling; also called CD3 (CD3 epsilon)
T1 sequence (P07766 23-126): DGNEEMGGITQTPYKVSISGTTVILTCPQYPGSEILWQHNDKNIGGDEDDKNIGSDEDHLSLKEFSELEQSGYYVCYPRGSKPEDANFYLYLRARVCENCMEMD

First: B1
Second: B2
The “ratio of amounts bound (altered form / CE115HA000)” value of the first is lower: 0.33 for the first, 0.61 for the second.

Going from B3 to B4, the “ratio of amounts bound (altered form / CE115HA000)” value falls from 1.01 to 0.89.

Compared with B5, B6 is higher in “ratio of amounts bound (altered form / CE115HA000)” value: 0.74 for the first, 0.84 for the second.

First: B7
Second: B8
The “ratio of amounts bound (altered form / CE115HA000)” value of the first is higher: 0.34 for the first, 0.22 for the second.

First: B9
Second: B10
The “ratio of amounts bound (altered form / CE115HA000)” value of the first is higher: 0.6 for the first, 0.27 for the second.

Going from B11 to B12, the “ratio of amounts bound (altered form / CE115HA000)” value falls from 0.74 to 0.72.

Going from B13 to B14, the “ratio of amounts bound (altered form / CE115HA000)” value rises from 0.27 to 0.91.

Compared with B15, B16 is lower in “ratio of amounts bound (altered form / CE115HA000)” value: 0.68 for the first, 0.67 for the second.

Going from B17 to B18, the “ratio of amounts bound (altered form / CE115HA000)” value falls from 0.28 to 0.18.

Going from B19 to B20, the “ratio of amounts bound (altered form / CE115HA000)” value falls from 1.11 to 0.84.

B21 was tested, and the “ratio of amounts bound (altered form / CE115HA000)” value was 0.82.
